Assay results: PMC2118540
Read-outs that look alike come from different tables or passages of the source.

Tests used:
Test in all cases: FRET or BRET
[1] = target: HLA-A, B, C (human (endogenous in KU812))
[2] = target: H-2K^b/D^b (mouse (endogenous in BMMCs))
[3] = target: H-2K^b/D^b (mouse (endogenous in BMMCs)); remark: listed apart in the source

Row | Molecule | FRET efficiency (%) [1] [%] | also measured
1 | leukocyte immunoglobulin (Ig)-like receptor (LILR) B2 (from UniProt Q8N423 22-597) | 20.7 | 
2 | β2-microglobulin (β2m), human (from UniProt P61769 21-119) (natural protein) | 14.5 | 
3 | β2-microglobulin (β2m), mouse (from UniProt P01887 21-119) (natural protein) |  | FRET efficiency (%) [2]: 8%
4 | paired Ig-like receptor (PIR)–B (receptor, tyrosine-phosphorylated, constitutively and after IgE stimulation (residues not given)) SLPKPILRVQPDSVVSRRTKVTFLCEETIGANEYRLYKDGKLYKTVTKNKQKPENKAEFSFSNVDLSNAGQYRCSYSTQYKSSGYSDLLELVVTGHYWTPSLLAQASPVVTSGGYVTLQCESWHNDHKFILTVEGPQKLSWTQDSQYNYSTRKYHALFSVGPVTPNQRWICRCYSYDRNRPYVWSPPSESVELLVSGNLQKPTIKAEPGSVITSKRAMTIWCQGNLDAEVYFLHNEKSQKTQSTQTLQEPGNKGKFFIPSVTLQHAGQYRCYCYGSAGWSQPSDTLELVVTGIYEYYEPRLSVLPSPVVTAGGNMTLHCASDFPYDKFILTKEDKKFGNSLDTEHISSSGQYRALFIIGPTTPTHTGAFRCYGYYKNAPQLWSVPSALQQILISGLSKKPSLLTHQGHILDPGMTLTLQCFSDINYDRFALHKVGGADIMQHSSQQTDTGFSVANFTLGYVSSSTGGQYRCYGAHNLSSEWSASSEPLDILITGQLPLTPSLSVQPNHTVHSGETVSLLCWSMDSVDTFILSKEGSAQQPLRLKSKSHDQQSQAEFSMSAVTSHLSGTYRCYGAQDSSFYLLSSASAPVELTVSGPIETSTPPPTMSMPLGGLHMYLKALIGVSVAFILFLFIFIFILLRRRHRGKFRKDVQKEKDLQLSSGAEEPITRKGELQKRPNPAAATQEESLYASVEDMQTEDGVELNSWTPPEEDPQGETYAQVKPSRLRKAGHVSPSVMSREQLNTEYEQAEEGQGANNQAAESGESQDVTYAQLCSRTLRQGAAASPLSQAGEAPEEPSVYATLAAARPEAVPKDMEQ |  | FRET efficiency (%) [3]: 13.5%
